This test addresses T1, ApoA-I (human, UniProt P02647 25-267).
T1 construct: Stands in Cargomers as a monomer or multimer (1-8 molecules); also called apolipoprotein A-I; ApoA1
Nature of the test: size exclusion chromatography of ApoA-I:M30 Cargomers, with increased temperature. A general note: SEC sorts molecules by how far they enter the pores of the column.

The results in this text go back to US20190048049A1 (CERENIS THERAPEUTICS, published 2019).

Ends that are not written are not given here.

T1 sequence (P02647 25-267 limits assumed): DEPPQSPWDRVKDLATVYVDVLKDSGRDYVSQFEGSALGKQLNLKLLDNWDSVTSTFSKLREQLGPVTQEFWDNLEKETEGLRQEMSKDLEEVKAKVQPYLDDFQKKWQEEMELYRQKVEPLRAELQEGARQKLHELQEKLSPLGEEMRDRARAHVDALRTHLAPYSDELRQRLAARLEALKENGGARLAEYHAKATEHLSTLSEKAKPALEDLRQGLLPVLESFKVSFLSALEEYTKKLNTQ

B1: M30 tumor antigen peptide coupled to PDP-PE lipid (peptide)
peptide: CSSVDWENVSPELNSTDQ
modifications: also: reacted with PDP-PE lipid, residue of attachment not given here
notes: Lipid-anchored peptide cargo of ApoA-I Cargomers (ApoA-I:TA molar ratios 1:2 and 1:4); also called TA peptide M30
On to B1, for which the binding result is “binds”.
